Measured values from US20200102355A1.

Legend:
[1] = biological target: TST (BMC-T1 / HO-5812 with SpyTag inserted on the lumenal side, flanked by six residue glycine-serine linkers) (Haliangium ochraceum); experiment: calculated from fluorescence intensity of purified shells
[2] = biological target: TSC (BMC-T1 / HO-5812 with SpyCatcherΔN1ΔC2 inserted on the lumenal side, flanked by six residue glycine-serine linkers) (Haliangium ochraceum) (UniProt D0LHE3); experiment: as above
[3] = biological target: STprobe (SpyTag-mTurquoise2-TEV protease cleavage site-tetracysteine motif-6xHis permeability probe)

Chain of TST (BMC-T1 / HO-5812 with SpyTag inserted on the lumenal side, flanked by six residue glycine-serine linkers) (Haliangium ochraceum) (D0LHE3 whole entry): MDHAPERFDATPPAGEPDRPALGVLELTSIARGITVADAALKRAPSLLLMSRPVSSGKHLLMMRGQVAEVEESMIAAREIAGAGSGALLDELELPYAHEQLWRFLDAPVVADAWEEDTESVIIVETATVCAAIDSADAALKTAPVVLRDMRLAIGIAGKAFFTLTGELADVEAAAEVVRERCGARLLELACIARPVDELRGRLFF

With SCcfp (6xHis-SpyCatcher-mTurquoise2) as the molecule, how does the copies of cfp cargo per shell (copies per shell) [1] read?
The copies of cfp cargo per shell (copies per shell) was 58.

Which copies of cfp cargo per shell (copies per shell) [2] does the source give for “STcfp (mTurquoise2 with N-terminal 13 residue SpyTag and C-terminal hexahistidine tag)” here?
The copies of cfp cargo per shell (copies per shell) was 73.

B1: tobacco etch virus protease (TEVp) (protein)
chain: GESLFKGPRDYNPISSTICHLTNESDGHTTSLYGIGFGPFIITNKHLFRRNNGTLLVQSLHGVFKVKNTTTLQQHLIDGRDMIIIRMPKDFPPFPQKLKFREPQREERICLVTTNFQTKSMSSMVSDTSCTFPSSDGIFWKHWIQTKDGQCGSPLVSTRDGFIVGIHSASNFTNTNNYFTSVPKNFMELLTNQEAQQWVSGWRLNADSVLWGGHKVFMSKPEEPFQPVKEATQLMN
Which “fluorescence emission shift (FRET of mTurquoise2 to FlAsH) reverted on TEVp addition, probe in uncapped shells” value [3] does the source give for B1 here?
The value was “Addition of the FlAsH reagent to the shells results in a fluorescence emission shift which is reverted upon TEVp addition”.
